The values below come from paper PMC8653789.

Holding throughout (test): AlphaScreen or HTRF
For orientation: Bead proximity is the source of the signal in Alpha formats.

The target of assay [1] is H3K4me2/H4K12ac nucleosome (UniProt P04908).
Assay [2] concerns the target H3K4me3/H4K12ac nucleosome (UniProt P04908).
The target of assay [3] is H3K4me1/H4K12ac nucleosome (UniProt P04908).

On to “PHIP Tudor–BD1–BD2 R1402S (from UniProt Q8WWQ0 940-1434) (domain or fragment)”, for which the fold reduction of binding relative to wild type in assay [1], in assay [2] and in assay [3] was above 10 fold throughout.
Regarding “PHIP Tudor–BD1–BD2 R1310C (from UniProt Q8WWQ0 940-1434) (domain or fragment)”, the fold reduction of binding relative to wild type in assay [1] and in assay [3] was above 4 fold in each case.
Take “PHIP Tudor–BD1–BD2 W1156L (from UniProt Q8WWQ0 940-1434) (domain or fragment)”: the fold reduction of binding relative to wild type in assay [1] and in assay [3] was above 3 fold each time.
